Activity data for 1 sequence are collected here from patent US20220145298.

The subject of data set [1] is TnsA(A125D)BC + TniQ-Cascade transposition system (Aeromonas salmonicida). Put plainly: cell_activity. Particulars: native array, native A.s. target on F plasmid; transposition in E. coli, mate-out; TACC PAM.
Data set [2] relates to TnsA(wt)BC + TniQ-Cascade transposition system (Aeromonas salmonicida). Put plainly: cell_activity. To be noted: wild-type TnsA; native array and native target; no detectable transposition.

Turning to “AGGACUGGAAGAAAUCAUCCAAGUUGGGGACU / TCAGGACCGGAAGGTAGCAGCCAAGGCGGGGGACTCGAGTGCCGGGATGTGGCTGATGGGGCCACCAC / GTGGTGGCCCCATCAGCCACATCCCGGCACTCGAGTCCCCCGCCTTGGCTGCTACCTTCCGGTCCTGA [ffs wild-type guide (10 mismatches) ; ffs target]”, the activity is 0.0188% in data set [1] and 0% in data set [2].
